No end group written: not given here.
Columns and labels:
Assay in all cases: Kinase Profiling Assay
Assay type in all cases: biochemical
Settings in all cases: peptide 100 μM
ALK(h) = ALK(h) (Homo sapiens, UniProt Q9UM73)
Summary of the method: (§1)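 Kinase inhibition by MK2 inhibitory peptides was profiled radiometrically, with substrate phosphorylation from labeled ATP read by scintillation after capture on a charged filter. Values are relative to 100% activity and measured in duplicate.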

Arg(h) = Arg(h) (Homo sapiens, UniProt P42684)
Summary of the method: as §1

CDK5/p35(h) = CDK5/p35(h) (Homo sapiens, UniProt Q00535)
Summary of the method: as §1

CaMKI(h) = CaMKI(h) (Homo sapiens, UniProt Q14012)
Summary of the method: as §1

EGFR(L861Q)(h) = EGFR(L861Q)(h) (Homo sapiens, UniProt P00533, L861Q)
Summary of the method: as §1

Fer(h) = Fer(h) (Homo sapiens, UniProt P16591)
Summary of the method: as §1

STK33(h) = target: T1, STK33(h) (Homo sapiens, UniProt Q9BYT3)
T1 construct: purchased Millipore
Summary of the method: as §1

ZIPK(h) = ZIPK(h) (Homo sapiens, UniProt O43293)
Summary of the method: as §1

p70S6K(h) = target: T2, p70S6K(h) (Homo sapiens, UniProt P23443)
T2 construct: purchased Millipore
Summary of the method: as §1

JAK3(h) = target: T3, JAK3(h) (Homo sapiens, UniProt P52333)
T3 construct: purchased Millipore
T3 sequence (P52333 1-1124): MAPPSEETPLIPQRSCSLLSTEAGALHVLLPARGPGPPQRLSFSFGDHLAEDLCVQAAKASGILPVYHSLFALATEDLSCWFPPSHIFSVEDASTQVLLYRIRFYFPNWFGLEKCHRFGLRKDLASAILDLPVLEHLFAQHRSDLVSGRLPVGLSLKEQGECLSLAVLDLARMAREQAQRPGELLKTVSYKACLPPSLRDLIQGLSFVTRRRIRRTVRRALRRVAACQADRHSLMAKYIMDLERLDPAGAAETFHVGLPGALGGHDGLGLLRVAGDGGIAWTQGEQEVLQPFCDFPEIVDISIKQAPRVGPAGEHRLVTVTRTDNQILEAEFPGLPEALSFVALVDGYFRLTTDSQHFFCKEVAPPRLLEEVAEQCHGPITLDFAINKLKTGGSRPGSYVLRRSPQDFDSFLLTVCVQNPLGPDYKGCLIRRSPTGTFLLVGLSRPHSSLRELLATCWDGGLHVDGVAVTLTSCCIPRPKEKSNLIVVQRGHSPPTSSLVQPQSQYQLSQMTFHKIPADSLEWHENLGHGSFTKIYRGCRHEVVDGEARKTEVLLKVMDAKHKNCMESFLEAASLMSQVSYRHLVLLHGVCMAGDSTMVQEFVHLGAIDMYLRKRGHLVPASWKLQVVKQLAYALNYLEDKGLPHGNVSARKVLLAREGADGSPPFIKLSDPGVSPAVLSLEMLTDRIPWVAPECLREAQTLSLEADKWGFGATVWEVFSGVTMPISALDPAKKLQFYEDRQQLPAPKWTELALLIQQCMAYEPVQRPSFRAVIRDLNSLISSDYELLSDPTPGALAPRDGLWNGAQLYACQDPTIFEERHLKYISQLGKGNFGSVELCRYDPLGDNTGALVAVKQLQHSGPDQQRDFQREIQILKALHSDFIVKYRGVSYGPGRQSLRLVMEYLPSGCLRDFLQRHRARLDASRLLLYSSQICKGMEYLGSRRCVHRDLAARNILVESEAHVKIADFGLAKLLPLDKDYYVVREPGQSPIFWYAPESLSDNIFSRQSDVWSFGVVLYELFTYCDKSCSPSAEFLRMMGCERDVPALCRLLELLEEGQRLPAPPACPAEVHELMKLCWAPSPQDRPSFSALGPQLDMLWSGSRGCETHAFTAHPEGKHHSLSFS
Summary of the method: as §1

MuSK(h) = target: T4, MuSK(h) (Homo sapiens, UniProt O15146)
T4 construct: purchased Millipore
T4 sequence (O15146 24-869): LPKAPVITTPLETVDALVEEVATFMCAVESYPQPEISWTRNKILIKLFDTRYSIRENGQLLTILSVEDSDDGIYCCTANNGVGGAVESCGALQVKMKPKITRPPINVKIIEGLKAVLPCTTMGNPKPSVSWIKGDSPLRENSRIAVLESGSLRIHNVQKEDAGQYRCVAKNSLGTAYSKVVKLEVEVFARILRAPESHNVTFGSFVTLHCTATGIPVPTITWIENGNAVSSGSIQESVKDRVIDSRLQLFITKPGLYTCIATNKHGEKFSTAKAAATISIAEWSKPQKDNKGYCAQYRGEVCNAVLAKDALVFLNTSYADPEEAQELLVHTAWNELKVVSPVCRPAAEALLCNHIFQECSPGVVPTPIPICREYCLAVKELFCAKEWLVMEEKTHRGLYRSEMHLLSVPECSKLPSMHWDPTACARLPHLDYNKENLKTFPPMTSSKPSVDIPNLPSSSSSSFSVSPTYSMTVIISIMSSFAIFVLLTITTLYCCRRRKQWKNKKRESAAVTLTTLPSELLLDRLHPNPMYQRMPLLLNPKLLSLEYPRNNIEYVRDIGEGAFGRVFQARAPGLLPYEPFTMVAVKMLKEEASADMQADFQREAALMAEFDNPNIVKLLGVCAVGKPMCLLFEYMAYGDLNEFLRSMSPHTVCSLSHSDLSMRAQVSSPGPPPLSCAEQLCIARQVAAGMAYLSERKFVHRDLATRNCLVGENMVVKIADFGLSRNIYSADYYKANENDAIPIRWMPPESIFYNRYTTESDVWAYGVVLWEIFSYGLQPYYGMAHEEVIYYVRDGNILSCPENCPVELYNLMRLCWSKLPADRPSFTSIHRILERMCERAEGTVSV
Summary of the method: as §1

cKit(V654A)(h) = cKit(V654A)(h) (Homo sapiens, UniProt P10721, V654A)
Summary of the method: as §1

CDK3/cyclinE(h) = CDK3/cyclinE(h) (Homo sapiens, UniProt Q00526)
Summary of the method: as §1

Chain of CDK3/cyclinE(h) (Q00526 whole entry): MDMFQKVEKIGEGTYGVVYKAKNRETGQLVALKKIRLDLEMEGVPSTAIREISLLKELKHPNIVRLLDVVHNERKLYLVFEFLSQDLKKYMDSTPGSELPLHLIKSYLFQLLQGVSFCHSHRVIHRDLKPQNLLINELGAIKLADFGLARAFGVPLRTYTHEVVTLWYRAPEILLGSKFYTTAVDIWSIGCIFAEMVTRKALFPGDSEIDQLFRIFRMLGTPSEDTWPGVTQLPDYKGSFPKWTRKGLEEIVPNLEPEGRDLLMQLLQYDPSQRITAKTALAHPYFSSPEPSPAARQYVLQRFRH
Chain of CDK3/cyclinE(h) (P24864 whole entry partner): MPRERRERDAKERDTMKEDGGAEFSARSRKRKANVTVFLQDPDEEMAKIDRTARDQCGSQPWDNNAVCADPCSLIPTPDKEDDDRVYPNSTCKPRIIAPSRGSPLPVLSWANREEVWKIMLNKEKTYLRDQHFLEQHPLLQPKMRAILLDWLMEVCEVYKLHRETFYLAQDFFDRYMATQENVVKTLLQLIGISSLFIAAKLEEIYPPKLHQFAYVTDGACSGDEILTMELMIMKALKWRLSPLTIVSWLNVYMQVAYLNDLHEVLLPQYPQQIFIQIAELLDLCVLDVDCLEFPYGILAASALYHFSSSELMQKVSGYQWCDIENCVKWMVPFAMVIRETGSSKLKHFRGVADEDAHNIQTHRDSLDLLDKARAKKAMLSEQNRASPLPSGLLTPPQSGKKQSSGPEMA
T1 sequence (Q9BYT3 whole entry): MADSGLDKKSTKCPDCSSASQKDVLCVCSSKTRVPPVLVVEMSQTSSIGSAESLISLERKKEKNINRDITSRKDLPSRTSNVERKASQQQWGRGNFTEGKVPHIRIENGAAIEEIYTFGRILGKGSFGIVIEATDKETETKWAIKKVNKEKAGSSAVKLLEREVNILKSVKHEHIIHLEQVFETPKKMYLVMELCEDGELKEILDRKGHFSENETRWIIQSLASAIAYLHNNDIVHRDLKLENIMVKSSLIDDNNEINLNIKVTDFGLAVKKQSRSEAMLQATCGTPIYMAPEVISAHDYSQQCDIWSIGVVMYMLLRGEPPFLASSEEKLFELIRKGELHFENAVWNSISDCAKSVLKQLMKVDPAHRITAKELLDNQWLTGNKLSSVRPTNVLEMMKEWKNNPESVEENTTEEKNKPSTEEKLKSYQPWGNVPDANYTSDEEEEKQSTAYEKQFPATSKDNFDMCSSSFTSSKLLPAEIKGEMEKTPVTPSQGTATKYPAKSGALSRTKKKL
Chain of CDK5/p35(h) (Q00535 whole entry): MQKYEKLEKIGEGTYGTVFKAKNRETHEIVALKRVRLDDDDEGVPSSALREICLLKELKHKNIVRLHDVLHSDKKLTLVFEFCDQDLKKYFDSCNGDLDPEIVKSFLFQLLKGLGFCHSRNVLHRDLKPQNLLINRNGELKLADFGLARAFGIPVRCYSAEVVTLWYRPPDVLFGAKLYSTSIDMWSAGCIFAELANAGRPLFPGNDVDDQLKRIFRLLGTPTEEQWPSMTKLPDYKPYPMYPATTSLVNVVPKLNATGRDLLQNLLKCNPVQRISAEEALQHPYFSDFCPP
Chain of CDK5/p35(h) (Q15078 whole entry partner): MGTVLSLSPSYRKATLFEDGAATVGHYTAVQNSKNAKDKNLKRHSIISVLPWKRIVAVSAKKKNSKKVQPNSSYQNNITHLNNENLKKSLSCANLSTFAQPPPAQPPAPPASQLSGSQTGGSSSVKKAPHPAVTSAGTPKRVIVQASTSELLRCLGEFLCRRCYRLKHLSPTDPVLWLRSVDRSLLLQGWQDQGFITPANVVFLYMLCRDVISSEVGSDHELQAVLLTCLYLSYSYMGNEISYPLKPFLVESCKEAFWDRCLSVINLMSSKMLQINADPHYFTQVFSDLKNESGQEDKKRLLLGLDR
Chain of Arg(h) (P42684 whole entry): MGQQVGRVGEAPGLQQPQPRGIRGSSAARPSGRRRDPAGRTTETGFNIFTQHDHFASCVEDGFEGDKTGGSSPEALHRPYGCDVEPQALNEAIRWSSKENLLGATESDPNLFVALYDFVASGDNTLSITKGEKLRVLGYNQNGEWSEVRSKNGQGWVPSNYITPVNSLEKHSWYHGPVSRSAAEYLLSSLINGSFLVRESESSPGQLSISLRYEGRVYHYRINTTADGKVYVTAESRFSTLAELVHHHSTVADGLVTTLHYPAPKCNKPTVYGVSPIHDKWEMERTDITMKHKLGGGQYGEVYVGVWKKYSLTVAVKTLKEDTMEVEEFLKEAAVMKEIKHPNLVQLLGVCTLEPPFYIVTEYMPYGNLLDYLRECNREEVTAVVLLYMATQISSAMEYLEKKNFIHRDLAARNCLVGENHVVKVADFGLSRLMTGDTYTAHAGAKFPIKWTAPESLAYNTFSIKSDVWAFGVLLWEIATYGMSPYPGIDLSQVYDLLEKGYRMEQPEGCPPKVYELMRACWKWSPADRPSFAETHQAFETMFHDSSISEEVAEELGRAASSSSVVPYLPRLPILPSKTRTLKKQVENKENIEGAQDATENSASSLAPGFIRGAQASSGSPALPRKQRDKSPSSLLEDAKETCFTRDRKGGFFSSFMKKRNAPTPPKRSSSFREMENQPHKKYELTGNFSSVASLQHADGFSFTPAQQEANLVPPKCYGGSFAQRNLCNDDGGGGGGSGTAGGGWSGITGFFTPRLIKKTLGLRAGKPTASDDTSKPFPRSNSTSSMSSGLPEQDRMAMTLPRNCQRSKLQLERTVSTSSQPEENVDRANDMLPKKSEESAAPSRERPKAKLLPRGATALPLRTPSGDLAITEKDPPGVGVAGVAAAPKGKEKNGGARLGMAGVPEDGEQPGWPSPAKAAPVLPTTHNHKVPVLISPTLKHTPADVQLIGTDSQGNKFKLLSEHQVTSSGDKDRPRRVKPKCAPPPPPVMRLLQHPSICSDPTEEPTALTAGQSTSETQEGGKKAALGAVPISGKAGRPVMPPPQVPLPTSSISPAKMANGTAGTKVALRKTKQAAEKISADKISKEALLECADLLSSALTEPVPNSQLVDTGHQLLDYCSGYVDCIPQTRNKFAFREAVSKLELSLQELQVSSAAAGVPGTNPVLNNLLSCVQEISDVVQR
Chain of ZIPK(h) (O43293 whole entry): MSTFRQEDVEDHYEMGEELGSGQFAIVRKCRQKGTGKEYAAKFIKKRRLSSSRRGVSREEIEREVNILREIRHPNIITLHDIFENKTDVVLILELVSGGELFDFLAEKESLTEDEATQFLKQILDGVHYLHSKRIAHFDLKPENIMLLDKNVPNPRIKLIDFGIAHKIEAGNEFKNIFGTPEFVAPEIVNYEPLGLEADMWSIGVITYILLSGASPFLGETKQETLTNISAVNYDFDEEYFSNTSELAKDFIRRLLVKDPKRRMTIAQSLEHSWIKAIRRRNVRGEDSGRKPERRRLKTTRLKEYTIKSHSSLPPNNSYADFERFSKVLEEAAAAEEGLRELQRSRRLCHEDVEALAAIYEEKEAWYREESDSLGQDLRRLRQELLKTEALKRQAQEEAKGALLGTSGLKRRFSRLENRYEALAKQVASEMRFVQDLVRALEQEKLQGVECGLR
T2 sequence (P23443 whole entry): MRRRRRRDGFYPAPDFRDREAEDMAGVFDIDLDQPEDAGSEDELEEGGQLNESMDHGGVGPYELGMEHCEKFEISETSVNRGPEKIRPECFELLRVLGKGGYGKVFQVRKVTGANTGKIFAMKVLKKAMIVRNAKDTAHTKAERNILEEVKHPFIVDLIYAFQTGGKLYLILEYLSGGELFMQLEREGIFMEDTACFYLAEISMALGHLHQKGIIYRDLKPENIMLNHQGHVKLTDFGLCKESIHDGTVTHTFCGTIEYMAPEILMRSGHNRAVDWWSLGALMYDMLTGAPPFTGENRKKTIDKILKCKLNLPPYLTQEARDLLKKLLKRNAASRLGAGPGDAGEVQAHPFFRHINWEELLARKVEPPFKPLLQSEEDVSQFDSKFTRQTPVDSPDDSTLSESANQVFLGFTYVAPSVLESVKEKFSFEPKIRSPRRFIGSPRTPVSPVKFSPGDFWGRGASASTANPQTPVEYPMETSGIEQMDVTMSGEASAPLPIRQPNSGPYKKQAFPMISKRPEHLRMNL
Chain of Fer(h) (P16591 whole entry): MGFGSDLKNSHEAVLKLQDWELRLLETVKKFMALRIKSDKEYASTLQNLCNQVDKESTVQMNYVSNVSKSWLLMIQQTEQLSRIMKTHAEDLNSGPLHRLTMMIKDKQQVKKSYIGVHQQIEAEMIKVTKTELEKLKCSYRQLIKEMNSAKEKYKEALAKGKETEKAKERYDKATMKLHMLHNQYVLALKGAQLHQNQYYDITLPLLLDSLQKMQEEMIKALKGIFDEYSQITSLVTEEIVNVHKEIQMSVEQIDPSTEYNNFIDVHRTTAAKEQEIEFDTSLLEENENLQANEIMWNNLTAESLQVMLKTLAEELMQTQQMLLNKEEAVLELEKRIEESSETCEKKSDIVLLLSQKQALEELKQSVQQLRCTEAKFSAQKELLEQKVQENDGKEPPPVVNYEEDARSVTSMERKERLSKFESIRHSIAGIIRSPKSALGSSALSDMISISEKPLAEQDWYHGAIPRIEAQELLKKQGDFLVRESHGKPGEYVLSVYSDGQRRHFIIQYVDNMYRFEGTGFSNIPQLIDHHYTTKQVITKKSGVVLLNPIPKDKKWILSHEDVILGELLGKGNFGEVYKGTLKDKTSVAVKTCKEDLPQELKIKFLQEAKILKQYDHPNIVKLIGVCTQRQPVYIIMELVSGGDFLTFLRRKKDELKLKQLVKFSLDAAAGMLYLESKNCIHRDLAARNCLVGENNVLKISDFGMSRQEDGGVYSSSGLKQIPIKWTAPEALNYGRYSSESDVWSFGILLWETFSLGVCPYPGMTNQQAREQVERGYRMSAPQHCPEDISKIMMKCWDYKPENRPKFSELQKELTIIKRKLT

Row | Sequence | % activity (ALK(h)) | % activity (Arg(h)) | % activity (CDK5/p35(h)) | % activity (CaMKI(h)) | % activity (EGFR(L861Q)(h)) | % activity (Fer(h)) | % activity (STK33(h)) | % activity (ZIPK(h)) | % activity (p70S6K(h)) | % activity (JAK3(h)) | % activity (MuSK(h)) | % activity (cKit(V654A)(h)) | % activity (CDK3/cyclinE(h))
1 | YARAAARQARAKALNRQLGVA (Mammal) [MMI-0200] | 95% | 82% | 92% | 21% | 74% | 101% | 98% | 67% | 84% |  |  |  | 
2 | YARAAARQARAKALARQLGVAA [MMI-0100] | 118% |  |  |  | 53% |  | 99% |  | 89% | 150% | 85% | 69% | 
3 | HRRIKAWLKKIKALARQLGVAA (Mammal) [MMI-0500] | 12% | 22% | 59% | -1% | 15% | 196% | 16% | 1% | 3% | 95% | 27% | 223% | 8%
4 | KAFAKLAARLYRKALARQLGVAA [MMI-0400] | 16% | 84% | 76% | 0% | 22% | 108% | 52% | 13% | 33% | 122% | 93% | 150% | 92%
5 | FAKLAARLYRKALARQLGVAA [MMI-0300] | 19% | 72% | 79% | 1% | 25% | 130% | 45% | 28% | 35% |  | 93% | 134% | 94%
